For assay [1], the target named is HLA-B*15:01. Put plainly: IEDB peptide-MHC binding, purified MHC/competitive/fluorescence; filed as Kd, often an IC50 or EC50 that approximates it; ≥ and ≤ were set here for values at or beyond the usual limits of such assays.
The target of assay [2] is HLA-B*57:01. The assay is described as above.
Assay [3] deals with HLA-A*03:01. Described as above.
In assay [4] the target is HLA-A*02:01. The description is as above. The following applies: source organism: Staphylococcus aureus subsp. aureus N315.
Assay [5] concerns the target HLA-A*26:01. The assay is described as above.
Assay [6] deals with HLA-B*27:03. The assay is described as above.
Assay [7] deals with HLA-B*18:01. Described as above.
The target in assay [8] is HLA-B*39:01. Described as above.
Assay [9] deals with HLA-B*46:01. The assay is described as above.
In assay [10] the target is HLA-A*69:01. Described as above. The following applies: source organism: Homo sapiens.
Assay [11] has as its target HLA-B*15:17. The description is as above. The following applies: source organism: Homo sapiens.
For assay [12], the target named is HLA-B*51:01. Described as above. The following applies: source organism: Homo sapiens.
The target in assay [13] is HLA-C*05:01. Put plainly: IEDB peptide-MHC binding, purified MHC/direct/fluorescence; filed as Kd, often an IC50 or EC50 that approximates it; ≥ and ≤ were set here for values at or beyond the usual limits of such assays.
The target in assay [14] is HLA-A*11:01. Described as above. The following applies: source organism: Homo sapiens.
For assay [15], the target named is HLA-A*03:01. Nature of the assay: IEDB peptide-MHC binding, purified MHC/competitive/fluorescence; ≥ and ≤ were set here for values at or beyond the usual limits of such assays.
In assay [16] the target is HLA-A*11:01. Described as above.
Assay [17] has as its target HLA-A*24:02. The description is as above.
The target in assay [18] is HLA-A*02:19. Put plainly: IEDB peptide-MHC binding, purified MHC/direct/fluorescence; filed as Kd, often an IC50 or EC50 that approximates it; ≥ and ≤ were set here for values at or beyond the usual limits of such assays. The following applies: source organism: Orthohantavirus sangassouense.
For assay [19], the target named is HLA-A*69:01. Described as above. The following applies: source organism: Amur virus.
The target of assay [20] is HLA-A*02:01. The description is as above.
The target in assay [21] is HLA-A*02:12. The assay is described as above. The following applies: source organism: Orthohantavirus sangassouense.
Assay [22] deals with HLA-A*02:11. Described as above. The following applies: source organism: Orthohantavirus sangassouense.
Assay [23] concerns the target HLA-B*15:42. Nature of the assay: IEDB peptide-MHC binding, purified MHC/competitive/fluorescence; filed as Kd, often an IC50 or EC50 that approximates it; ≥ and ≤ were set here for values at or beyond the usual limits of such assays. The following applies: source organism: human gammaherpesvirus 4.
The target in assay [24] is HLA-B*45:06. The description is as above. The following applies: source organism: human gammaherpesvirus 4.
Assay [25] deals with HLA-B*83:01. The description is as above. The following applies: source organism: human gammaherpesvirus 4.
In assay [26] the target is HLA-A*02:01. Put plainly: IEDB peptide-MHC binding, purified MHC/competitive/fluorescence; ≥ and ≤ were set here for values at or beyond the usual limits of such assays. The following applies: source organism: Zaire ebolavirus.
Setting [27] is: source organism: Staphylococcus aureus subsp. aureus N315.
[28] abbreviates: source organism: Sudan ebolavirus.
Where [29] appears, read: source organism: Zaire ebolavirus.
Where [30] appears, read: source organism: Vaccinia virus Copenhagen.

Bounds are passed on as bounds.

Take VILNYIPVL: the Kd is at least 20 µM in assay [1] (setting [27]); at least 20 µM in assay [2] (setting [27]); at least 20 µM in assay [3] (setting [27]); 0.0006 µM in [4]; at least 20 µM in [5] (setting [27]); at least 20 µM in assay [6] (setting [27]). The Kd in assay [7] (setting [27]), in assay [8] (setting [27]) and in assay [9] (setting [27]) was at least 20 µM throughout.
For LMQCWQLLA, the dissociation constant (Kd) in assay [1] (source organism: Homo sapiens), in [2] (source organism: Homo sapiens), in assay [10], in assay [11], in assay [5] (source organism: Homo sapiens) and in assay [6] (source organism: Homo sapiens) was at least 20 µM throughout. Moreover, the Kd in assay [7] (source organism: Homo sapiens), in assay [12], in assay [8] (source organism: Homo sapiens) and in assay [9] (source organism: Homo sapiens) was at least 20 µM throughout.
In [3] (source organism: Homo sapiens), LSSSVPSQK showed a dissociation constant Kd of 0.455 µM.
Take TFDVAPSRL: the figures for the equilibrium dissociation constant (Kd) in assay [13] (source organism: Mus musculus) and in assay [14] were at least 20 µM and at least 32.6 µM, respectively.
For the sequence GIYTEGLMH, the figures for the half-inhibitory concentration (IC50) in assay [15] (setting [28]) and in assay [16] (setting [28]) were 15.4 µM and 3.55 µM, respectively.
On the same counts, the results for KIDNNTFVR are 31.9 µM and 2.74 µM.
In the case of SGYYSTTIR, the 50% inhibitory concentration (IC50) is at least 346 µM in [17] (setting [29]), 1.67 µM in [15] (setting [29]) and 0.903 µM in assay [16] (setting [29]).
Regarding GLYPAQIKA, the equilibrium dissociation constant (Kd) in assay [18] is at least 20 µM; in [19], at least 20 µM; in assay [20] (source organism: Amur virus) it was 0.0035 µM; in assay [21], 0.126 µM; in assay [22] it was 0.033 µM.
In turn, LLLKERGLH yielded a dissociation constant (Kd) in [3] (source organism: Vibrio parahaemolyticus AQ3810) of at least 20 µM.
In the case of LLAMTFWPA, the dissociation constant Kd in [20] (source organism: Homo sapiens) was 0.0002 µM; in assay [2] (source organism: Homo sapiens) it was at least 20 µM; in assay [11] it was at least 20 µM; in [5] (source organism: Homo sapiens), at least 20 µM; in assay [6] (source organism: Homo sapiens) it was at least 20 µM; in assay [7] (source organism: Homo sapiens) it was at least 20 µM. In addition, the Kd in [12], in [8] (source organism: Homo sapiens) and in assay [9] (source organism: Homo sapiens) was at least 20 µM each time.
For the sequence KSMRDQRKG, the concentration for half-maximal inhibition (IC50) in assay [15] (source organism: Variola virus) was at least 119 µM; in assay [16] (source organism: Variola virus), 47.3 µM.
With FLDKGTYTL, the Kd in assay [13] (source organism: human gammaherpesvirus 4) was at most 0.001 µM; in [23] it was at least 5 µM; in assay [24] it was at least 5 µM; in [25], at least 5 µM.
For the sequence LITGGRRTR, the 50% inhibitory concentration (IC50) in assay [15] (setting [29]) was at least 112 µM; in [16] (setting [29]), at least 93.3 µM; in assay [26], at least 111 µM.
Regarding FYRSGTETK, the IC50 in assay [17] (setting [30]) is at least 99.2 µM; in assay [15] (setting [30]) it was 64.2 µM; in assay [16] (setting [30]) it was 44.1 µM.

(Values after the Immune Epitope Database (IEDB).)
